Reference: patent publication US20230050972A1 (MOMENTA PHARMACEUTICALS, published 2023)

T1: in-house generated I domain of α11β1 (human, UniProt Q9UKX5 159-349, limits assumed)
T1 construct: domain: I domain; also called human α11β1 I domain; α11β1 I Domain
T1 sequence (looked up): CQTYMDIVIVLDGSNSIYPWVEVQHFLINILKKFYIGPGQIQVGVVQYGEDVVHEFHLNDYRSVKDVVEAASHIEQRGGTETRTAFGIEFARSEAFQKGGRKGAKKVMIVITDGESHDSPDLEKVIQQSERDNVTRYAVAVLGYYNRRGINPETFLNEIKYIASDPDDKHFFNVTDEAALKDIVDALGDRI

B1: A11B1_5A7 (antibody, V domains shown)
VH: QSLEESGGGLVQPEGSLTLACTASGFSFSSYYYICWVRQAPGTGLEWIGCINTGSDDTHYASWLKGRFTFSKASSTTLTLQMTSLTAADTATYFCARSSGSSDDAYDLWGPGTLVTVSS
VL: DVVMTQTPASVSEPVGGAVTIKCQASQSIGSNLAWYQHKPGQPPKLLIYFASSLASGVSSRFKGGRSGTQFTLTISDLECADAATYYCHCTYYPLSYVTFGGGTEVVVKG
notes: recombinant rabbit IgG, full chains
B2: A11B1_6F9 (antibody, V domains shown)
VH: QSLEESGGDLVKPGASLTLTCTASGSSFSSTYWNCWVRQAPGKGLEWIACINAGSGTTYYASWAKGRFTVSKTSSTTVTLQMTSLTAADTATYFCTRDSDGRFSSGYYFNLWGPGTLVTVSS
VL: AQVLTQTASPVSAAVGGTVTINCQSSQSVYDNNWLAWYQQKPGQPPKLLIDDASKLTSGVSSRFKGSGSGTQFTLTISGVQCDDAATYYCQGAYYSSGWYWAFGGGTEVVVKG
notes: as for B1
B3: A11B1_4E1 (antibody, V domains shown)
VH: QSLEESGGDLVKPGTSLTLSCTASGFSFGSYYYMCWVRQAPGKGLEWIACIDVGSSGDTYYASWVNGRFTISKTSSTTVTLQMTSLTAADTATYFCARDDTAAGGFGNLELWGPGTLVTVSS
VL: AFELTQTPSSVSEPVGGTVTIKCQASQSIYSYFSWYQQKPGQPPKRLIYQASTLASGVPSRFKGSGSGTDFTLTISDLECADAATYYCQNNYGRGSGSYFFGFGGGTEVVVKG
notes: as for B1
B4: 7-O8 (antibody, V domains shown)
VH: EVQLQQSGPELVKPGASVKMSCKASGYTFTDYYIHWVKQKPGQGLEYIGEIYPGSGNTYYNGKFRGKATLTADKSSSTAYMQLSSLTSEDSAVYFCGSGYFDYWGQGTTLTVSS
VL: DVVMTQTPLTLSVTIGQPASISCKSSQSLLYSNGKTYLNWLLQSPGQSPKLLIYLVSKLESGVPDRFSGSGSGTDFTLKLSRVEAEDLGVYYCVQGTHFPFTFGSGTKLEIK
notes: mouse hybridoma IgG
B5: A11B1_16G7 (antibody, V domains shown)
VH: QEQLVESGGDLVKPGASLTLTCTASGFSFNKNYWMCWVRQAPGKGLEWIGCIYNGDGNTYYASWVNGRFTISKTSSTTVTLQMTSLTVADTAIYFCARLLNMWGPGTLVTVSS
VL: DIVMTQTPASVEAAVGGTVTIKCQASESIGNALAWYQQKPGQPPKLLIYTAATLASGVPSRFSGSGSGTEFTLTISGVQCDDAATYYCQSYYFTSVSSYGNAFGGGTEVVVKG
notes: as for B1
B6: 10-F23 (antibody, V domains shown)
VH: QVTLKESGPGILQPSQTLSLTCSFSGFSLSTFAMGVGWIRQPSGKGLEWLAHIWWDDDKYYNPALKSRLTISKDTSKNHVFLKIANVDTADTATYYCARMPLTFYFDYWGQGTTLTVSS
VL: DVLLTQTPLSLPVSLGDQASISCRSSQSIVHSNGHTYLEWYLQKPGQSPKLLIYKVSNRFSGVPDRFSGSGSGTDFTLKISRVEAEDLGVYYCFQGSHVPFTFGGGTKLEIK
notes: mouse hybridoma IgG
B7: 6-A12 (antibody, V domains shown)
VH: QVTLKESGPGILQPSQTLSLTCSFSGFSLRTFAMGVGWIRQPSGKGLEWLAHIWWDDDKYYNPALKSRLTISKDTSKNQVFLKIANVDTADTATYYCARMPLTFYFDYWGQGTTLTVSS
VL: DVLMTQTPLSLPVSLGDQASISCRSSQSIVHSNGNTYLEWYLQKPGQSPKLLIYKVSTRFSGVPDRFSGSGSGTDFTLKISRVEAEDLGVYYCFQGSHVPFTFGGGTKLEIK
notes: mouse hybridoma IgG
B8: A11B1_6G4 (antibody, V domains shown)
VH: QQQLEESGGGLVKPGGTLTLTCKASGVALNPYYYMCWVRQAPGKGLEWIACVDADSSGSTYYASWAKGRFTISKTSSTTVTLKMTSLTAADTATYFCARESVDYSSVGIGYVHGTDGLWGPGTLVTVSS
VL: DIVVTQTPSSVSAAVGGTVTIKCQASQSISNYFSWYQQKPGQPPKLLIYRASTLASGVPSRFKGSGSGTEFTLTISDLECADAATYYCQCTYGRSNSNFFYGFGGGTEVVVKG
notes: as for B1
B9: 18E10F10 (antibody, V domains shown)
VH: EVQLVESGGGLVQPGRSLKLSCAASRFTFSDYNMAWVRQAPKKGLEWVATIYHDDSGSYYRDSVKGRFTISRNNAKSTLYLQMDSLRSEDMATYYCARHNNGFDYWGQGVMVTVAS
VL: DVVMTQTPVSLPVRLGGQASISCRSSQSLVHSNGNTYLHWYLQKPGQSPQLLINRVSNRFSGVPDRFSGSGSGTDFTLKINRVEPEDLGDYYCLQSTHFPLTFGSGTKLETK
notes: rat hybridoma mAb
B10: A11B1_6C7 (antibody, V domains shown)
VH: QQQLEESGGGLVKPGGTLTLTCKASGIDFSSYYYMCWVRQAPGKGLELIVCIYTSSGGTWYASWVNGRLTISRSTSLNTVDLKMTSLTAADTATYFCARGVYSGSSDYPTRLDLWGQGTLVTVSL
VL: AIEMTQSPPSLSASVGETVRIRCLASEDIYSGISWYQQKPEKPPTLLISGASNLESGVPPRFSGGGSGTDYTLTIGGVQAEDVATYYCLGGYSFSSTGLTFGAGTKVEIKR
notes: as for B1
B11: 3-G5 (antibody, V domains shown)
VH: QVQLQQSGAELARPGASVKLSCKASGYTFTSYGISWVKQRTGQGLEWIGEIFPRSSNTYYNEKFKGKATLTADKSSSTVYMEFRSLTSEDSAVYFCAREGGLAWFAYWGQGTLVTVSA
VL: DVVMTQTPLTLSVTIGQPASISCKSSQSLLYTNGNTYLNWLLQRPGQSPKRLIYLVSKLDSGIPDRFSGSGSGTDFTLRISRVEAEDLGVYYCLQSTHFPFTFGSGTKLEIK
notes: mouse hybridoma IgG
B12: 9-B11 (antibody, V domains shown)
VH: QVQLQQPGAELVRPGTSVKLSCKASGYTFTSYWMHWVQQRPGQGLEWIGVIDPSDSYTNYNQKFKGKATLTVDTSSSSAYMQLSSLTSEDSAVYYCARDDVAMDYWGQGTSVTVSS
VL: DIVVTQSPASLAVSLGQRATISCRASESVDSYGNSFIHWYQQKPGQPPKLLIYRASNLKSGIPARFSGSGSRTDFTLTINPVEADDVATYYCQQSNEDPYTFGGGTKLEIK
notes: mouse hybridoma IgG
B13: 10-K10 (antibody, V domains shown)
VH: EVQLQQSGPELVKPGASVKMSCKASGYTITDYYMMWLKQSHGKSLEWIGDINPYTGGTSYNQKFKGKATLTVDKSSSTAYMQLNSLTSEDSAVYYCARGAYWGQGTTLTVSS
VL: not shown
notes: mouse hybridoma IgG
B14: A11B1_5D7 (antibody, V domains shown)
VH: QEQLVESGGGLVQPEGSLTLTCKASGFDFSSNAMCWVRQAPGKGLEWIACIYNGDGSTYYASWVNGRFTISKTSSTTVTLQMTSLTAADTATYFCARGLSNWNRDNLWGPGTLVTVSS
VL: AQVLTQTPSSVSAAVGGTATINCQASQSLYSPKNLAWYQQTPGQPPKLLIYSASKLASGVPSRFKGSGSGTQFTLTISGVQCDDAAIYYCQGEFSCTTAACFAFGGGTEVVVKG
notes: as for B1
B15: A11B1_3B1 (antibody, V domains shown)
VH: QEQLEESGGGLVKPEGSLTLTCKASGFDLSSGYDMCWVRQAPGKGLEWIACIYADYSGSTYYASWVNGRFTISSSTSLNTVDLKMTSLTAADTATYFCARGATGNGGYGYYFNLWGPGTLVTVSS
VL: DIVMTQTPASVSEPVGGTVTIKCQASQNINSGLAWYQQKPGQPPKLLIYKASTLASGVSSRFKGSGSGTEFTLTISDLECADAATYYCQTYYYSSSSSDNAFGGGTEVVVKG
notes: as for B1

What was measured:
[1] = biological target: T2, α11β1 on human myofibroblasts (MF) (human, UniProt Q9UKX5 23-1188; P05556 21-798); assay: FACS on human myofibroblasts
T2 construct: whole, on cells
T2 sequence (Q9UKX5 23-1188, chain 1 of 2): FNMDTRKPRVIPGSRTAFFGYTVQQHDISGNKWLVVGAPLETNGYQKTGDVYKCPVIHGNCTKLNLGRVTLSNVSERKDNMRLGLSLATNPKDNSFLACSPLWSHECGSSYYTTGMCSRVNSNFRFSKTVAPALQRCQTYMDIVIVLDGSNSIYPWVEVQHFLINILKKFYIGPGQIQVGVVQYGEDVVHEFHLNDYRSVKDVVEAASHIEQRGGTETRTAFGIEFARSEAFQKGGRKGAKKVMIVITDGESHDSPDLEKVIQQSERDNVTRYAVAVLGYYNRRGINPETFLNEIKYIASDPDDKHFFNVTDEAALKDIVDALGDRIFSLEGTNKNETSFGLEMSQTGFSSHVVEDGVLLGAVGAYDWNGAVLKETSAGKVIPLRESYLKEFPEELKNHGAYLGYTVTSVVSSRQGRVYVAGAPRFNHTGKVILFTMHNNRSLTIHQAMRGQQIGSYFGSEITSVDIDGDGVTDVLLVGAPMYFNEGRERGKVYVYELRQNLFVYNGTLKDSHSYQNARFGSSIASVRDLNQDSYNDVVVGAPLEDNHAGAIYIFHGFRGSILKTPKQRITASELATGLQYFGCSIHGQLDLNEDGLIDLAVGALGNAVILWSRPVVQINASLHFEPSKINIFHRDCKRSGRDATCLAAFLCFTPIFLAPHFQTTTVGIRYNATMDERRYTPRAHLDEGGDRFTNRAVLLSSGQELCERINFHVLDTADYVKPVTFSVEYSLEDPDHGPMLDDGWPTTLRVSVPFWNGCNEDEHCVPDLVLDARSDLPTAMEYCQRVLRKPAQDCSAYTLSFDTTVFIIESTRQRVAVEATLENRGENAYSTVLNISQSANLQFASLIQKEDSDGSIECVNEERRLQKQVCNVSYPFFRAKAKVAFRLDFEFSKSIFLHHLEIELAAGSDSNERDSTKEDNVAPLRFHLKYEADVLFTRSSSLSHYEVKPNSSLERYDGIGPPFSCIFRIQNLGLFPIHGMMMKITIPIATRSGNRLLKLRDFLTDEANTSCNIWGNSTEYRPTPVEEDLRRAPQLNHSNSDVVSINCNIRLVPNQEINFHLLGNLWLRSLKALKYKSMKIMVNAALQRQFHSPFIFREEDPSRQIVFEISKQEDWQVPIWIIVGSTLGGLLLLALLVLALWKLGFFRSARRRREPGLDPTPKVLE
T2 sequence (P05556 21-798, chain 2 of 2): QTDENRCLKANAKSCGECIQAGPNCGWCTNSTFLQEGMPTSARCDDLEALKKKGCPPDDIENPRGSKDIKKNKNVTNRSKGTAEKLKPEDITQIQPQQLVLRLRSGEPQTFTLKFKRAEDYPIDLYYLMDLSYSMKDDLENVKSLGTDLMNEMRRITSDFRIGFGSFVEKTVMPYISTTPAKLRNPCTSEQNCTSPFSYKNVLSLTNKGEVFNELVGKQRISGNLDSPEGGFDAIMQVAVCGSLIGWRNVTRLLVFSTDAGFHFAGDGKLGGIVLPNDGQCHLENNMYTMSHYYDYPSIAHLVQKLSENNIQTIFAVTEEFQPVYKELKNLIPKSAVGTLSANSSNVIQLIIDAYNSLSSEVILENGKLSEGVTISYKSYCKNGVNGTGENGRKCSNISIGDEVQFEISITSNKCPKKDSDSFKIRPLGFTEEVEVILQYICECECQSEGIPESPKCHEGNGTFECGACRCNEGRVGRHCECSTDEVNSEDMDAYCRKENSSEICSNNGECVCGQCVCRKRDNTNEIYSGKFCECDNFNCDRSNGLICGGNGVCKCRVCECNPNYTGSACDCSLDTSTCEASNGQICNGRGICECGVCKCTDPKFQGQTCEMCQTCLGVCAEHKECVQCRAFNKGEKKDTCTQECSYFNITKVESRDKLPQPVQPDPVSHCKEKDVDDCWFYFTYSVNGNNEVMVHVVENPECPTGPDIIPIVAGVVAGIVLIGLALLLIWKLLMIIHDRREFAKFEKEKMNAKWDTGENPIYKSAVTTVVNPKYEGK
Description: Human Pulmonary Fibroblasts (ScienCell) were cultured in complete Fibroblast Growth Medium (ScienCell) until 80% confluent in T-150 flasks. Cells were washed and harvested using Accutase. Cells were seeded into T-150 flasks at 7,500 cells/cm² in complete FGF and cultured for 72 hours. Cells were then washed and starved in serum reduced medium for 24 hours. After starvation, cells were treated with TGFβ-1 (R&D Systems) for 72 hours. Cells were harvested using Accutase and seeded in 96-well conical bottom plates. Cells were blocked with Heat Inactived Fetal Bovine Serum (Gibco) for 30 minutes at 4° C. Cells were then incubated with anti-α11 antibodies at the doses described in each figure for 30 minutes at 4° C. A human anti-α11 antibody (Creative BioLabs) was included as a positive control as well as the appropriate IgG isotype negative controls. Cells were washed twice and incubated with PE conjugated secondary antibodies specific to the IgG class of the anti-α11 antibodies being tested for 30 minutes at 4° C. Cells were washed twice and fixed in 1% PFA for 30 minutes. Cells were acquired on a FACS Verse […]. Data were analyzed by gating on single cells and determining the geometric Mean Fluorescence Intensity (gMFI) in the PE channel for each sample.

[2] = biological target: T1, in-house generated I domain of α11β1; assay: binding to isolated I domain
[3] = biological target: T3, recombinant human α11β1 (human, UniProt Q9UKX5 23-1141; P05556 21-728); assay: ELISA on recombinant human α11β1
T3 construct: Coated in ELISA; ELISA and SPR material treated as one molecule; also called HIS-tagged human α11β1; integrin alpha 11 beta 1
T3 sequence (Q9UKX5 23-1141 limits assumed, chain 1 of 2): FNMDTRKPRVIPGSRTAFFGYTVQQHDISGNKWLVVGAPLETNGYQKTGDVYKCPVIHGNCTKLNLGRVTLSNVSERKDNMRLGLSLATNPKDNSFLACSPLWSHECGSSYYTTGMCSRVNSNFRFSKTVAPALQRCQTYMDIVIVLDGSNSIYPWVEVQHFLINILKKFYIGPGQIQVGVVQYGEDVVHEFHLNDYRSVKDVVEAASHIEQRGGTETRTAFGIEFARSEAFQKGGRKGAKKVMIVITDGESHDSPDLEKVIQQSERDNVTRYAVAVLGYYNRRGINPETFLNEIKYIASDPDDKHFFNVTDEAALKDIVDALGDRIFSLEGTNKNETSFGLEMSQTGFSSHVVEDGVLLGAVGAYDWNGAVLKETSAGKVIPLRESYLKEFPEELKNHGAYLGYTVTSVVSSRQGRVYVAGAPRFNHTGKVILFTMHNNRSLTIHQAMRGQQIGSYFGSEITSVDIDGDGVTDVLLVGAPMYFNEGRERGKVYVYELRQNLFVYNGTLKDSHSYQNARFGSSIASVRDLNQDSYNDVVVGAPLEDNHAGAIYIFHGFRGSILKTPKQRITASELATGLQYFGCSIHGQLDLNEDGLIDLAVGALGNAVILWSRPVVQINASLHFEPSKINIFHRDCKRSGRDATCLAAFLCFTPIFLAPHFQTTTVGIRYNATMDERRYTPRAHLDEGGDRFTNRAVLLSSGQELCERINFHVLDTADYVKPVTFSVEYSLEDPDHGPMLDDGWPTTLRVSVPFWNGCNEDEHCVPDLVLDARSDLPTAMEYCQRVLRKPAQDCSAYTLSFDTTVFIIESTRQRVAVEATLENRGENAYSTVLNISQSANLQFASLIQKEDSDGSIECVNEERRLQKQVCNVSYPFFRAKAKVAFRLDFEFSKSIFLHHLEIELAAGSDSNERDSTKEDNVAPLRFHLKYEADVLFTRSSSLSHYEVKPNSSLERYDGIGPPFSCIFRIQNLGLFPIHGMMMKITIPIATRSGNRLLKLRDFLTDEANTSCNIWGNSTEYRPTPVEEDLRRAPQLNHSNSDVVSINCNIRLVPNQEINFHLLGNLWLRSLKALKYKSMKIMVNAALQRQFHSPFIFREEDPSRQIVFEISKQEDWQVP
T3 sequence (P05556 21-728 limits assumed, chain 2 of 2): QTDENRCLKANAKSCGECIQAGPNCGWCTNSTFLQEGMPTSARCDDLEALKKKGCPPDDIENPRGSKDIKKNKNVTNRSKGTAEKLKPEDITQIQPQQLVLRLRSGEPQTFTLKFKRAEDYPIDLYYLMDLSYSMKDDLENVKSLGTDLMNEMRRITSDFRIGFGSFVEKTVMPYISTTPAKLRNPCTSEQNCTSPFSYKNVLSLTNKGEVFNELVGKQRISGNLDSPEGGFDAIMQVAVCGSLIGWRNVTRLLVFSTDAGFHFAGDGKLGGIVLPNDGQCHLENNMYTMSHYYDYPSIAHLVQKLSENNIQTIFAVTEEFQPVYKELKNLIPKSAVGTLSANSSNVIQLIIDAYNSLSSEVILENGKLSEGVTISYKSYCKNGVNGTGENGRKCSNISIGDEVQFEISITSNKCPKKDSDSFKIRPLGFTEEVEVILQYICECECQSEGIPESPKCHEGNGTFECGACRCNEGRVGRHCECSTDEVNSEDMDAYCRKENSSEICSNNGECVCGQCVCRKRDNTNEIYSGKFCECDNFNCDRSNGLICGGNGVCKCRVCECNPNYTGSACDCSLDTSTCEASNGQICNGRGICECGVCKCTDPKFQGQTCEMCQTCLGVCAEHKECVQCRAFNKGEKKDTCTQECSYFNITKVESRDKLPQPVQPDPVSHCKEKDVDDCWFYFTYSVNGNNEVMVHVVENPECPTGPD
Description: (§1) 0.25 μg/mL of target antigen (recombinant human or mouse α11β1) was plated in a 96-well plate over night at 4° C. Plates were washed (PBS with 0.1% Tween-20), blocked (PBS with 2% BSA and 0.05% Tween-20) for 1 hour at room temperature and incubated with a range of antibody concentrations for 1 hour at room temperature. Subsequently, plates were washed and incubated with biotinylated anti-rabbit/mouse/human IgG in a 1:1000 dilution buffer and incubated for 1 hour at room temperature. After washing the plates, Streptavidin HRP was added at 1:200 in dilution buffer and incubated for 1 hour at room temperature. Ultra TMB ELISA substrate solution was added and the plates incubated for 5 minutes on a plate shaker. The reaction was stopped by adding stop solution to each well and plates were read at 450 nm.

[4] = biological target: T4, recombinant mouse α11β1 (mouse, UniProt P61622 23-1141; P09055 21-728, limits assumed); assay: ELISA on recombinant mouse α11β1
T4 construct: also called murine α11β1
Description: as §1

| Binder | binding result [1] | binding result [2] | binding result [3] | binding result [4] |
| --- | --- | --- | --- | --- |
| B1 | binds | no binding | binds | no binding |
| B2 | binds | no binding | binds | no binding |
| B3 | binds | no binding | binds | no binding |
| B4 | binds | – | binds | binds |
| B5 | binds | no binding | binds | binds |
| B6 | binds | – | binds | binds |
| B7 | binds | – | binds | binds |
| B8 | binds | no binding | binds | no binding |
| B9 | – | no binding | binds | no binding |
| B10 | binds | no binding | binds | no binding |
| B11 | – | no binding | binds | binds |
| B12 | binds | – | binds | no binding |
| B13 | binds | no binding | binds | binds |
| B14 | binds | no binding | binds | no binding |
| B15 | binds | no binding | binds | no binding |
